± gives the standard error. For some assays here: Variants at the floor of the assay were thinned out.
B1: glmS ribozyme (parent)
chain: AUAAAAGCGCCAGAACUACAGAAAUGUAGUUGACGAGGAGGAGGUUUAUCGAAUUUUCGGCGGAUGCCUCCAAA

Key:
Conditions in all cases: with glucosamine-6-phosphate
glucosamine-6-phosphate [1] = variants of: B1; assay: kcat; higher = faster cleavage; RNA array
Outline: (§1)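 Sequenced MiSeq chips were the platform: E. coli RNA polymerase transcribed barcoded ribozyme variants on them in situ, and a hybridised Cy3 probe tracked these at 37 °C. After glucosamine-6-phosphate (40 μM to 10 mM) in HEPES/KCl/Mg(OAc)2 buffer was flowed in, tiles were imaged over ~14 h. Signals normalised to baseline and to non-cleaving reference variants were reduced to per-tile medians and fit to one- or two-exponential decays to obtain kobs. kcat and KM were derived through weighted Michaelis–Menten fits across concentrations.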

glucosamine-6-phosphate [2] = variants of: B1; assay: KM; higher = weaker cofactor use; RNA array
Outline: as §1

glucosamine-6-phosphate [3] = variants of: B1; assay: self-cleavage kobs at 2500 uM GlcN6P; higher = faster cleavage; RNA array
Outline: as §1

glucosamine-6-phosphate [4] = variants of: B1; assay: self-cleavage kobs at 10000 uM GlcN6P; higher = faster cleavage; RNA array
Outline: as §1

glucosamine-6-phosphate [5] = variants of: B1; assay: self-cleavage kobs at 40 uM GlcN6P; higher = faster cleavage; RNA array
Outline: as §1

glucosamine-6-phosphate [6] = variants of: B1; assay: self-cleavage kobs at 160 uM GlcN6P; higher = faster cleavage; RNA array
Outline: as §1

glucosamine-6-phosphate [7] = variants of: B1; assay: self-cleavage kobs at 640 uM GlcN6P; higher = faster cleavage; RNA array
Outline: as §1

Variant | kcat (glucosamine-6-phosphate [1]) | KM (glucosamine-6-phosphate [2]) | self-cleavage kobs at 2500 uM GlcN6P (glucosamine-6-phosphate [3]) | self-cleavage kobs at 10000 uM GlcN6P (glucosamine-6-phosphate [4]) | self-cleavage kobs at 40 uM GlcN6P (glucosamine-6-phosphate [5]) | self-cleavage kobs at 160 uM GlcN6P (glucosamine-6-phosphate [6]) | self-cleavage kobs at 640 uM GlcN6P (glucosamine-6-phosphate [7])
A12C C58U | 0.000159 ± 1.6e-05 s⁻¹ | 6360 ± 1200 µM | 4.66e-05 ± 9.5e-06 s⁻¹ | 9.68e-05 ± 1.2e-05 s⁻¹ |  |  | 
U30A U65C | 0.000105 ± 8e-06 s⁻¹ | 2860 ± 590 µM | 4.68e-05 ± 1.5e-05 s⁻¹ | 8.23e-05 ± 1.6e-05 s⁻¹ |  |  | 
C50A G62U | < 1e-05 s⁻¹ |  |  | < 1e-05 s⁻¹ | < 1e-05 s⁻¹ |  | 
G32A U45A | 0.00555 ± 0.00055 s⁻¹ | 2580 ± 370 µM | 0.003 ± 0.001 s⁻¹ | 0.00438 ± 0.00057 s⁻¹ | 9.16e-05 ± 1.5e-05 s⁻¹ | 0.000267 ± 6.7e-05 s⁻¹ | 0.00117 ± 0.00024 s⁻¹
U54G G59A | 9.1e-05 ± 6.5e-06 s⁻¹ | 858 ± 300 µM | 6.93e-05 ± 2.3e-05 s⁻¹ | 8.23e-05 ± 3e-05 s⁻¹ |  |  | 
G66U C68G | 4.91e-05 ± 1.9e-05 s⁻¹ |  | 6.89e-05 ± 1.1e-05 s⁻¹ |  |  | 3.35e-05 ± 1.3e-05 s⁻¹ | 8.19e-05 ± 1.4e-05 s⁻¹
U47A C67U | 0.00772 ± 0.0031 s⁻¹ |  | 0.00497 ± 0.0016 s⁻¹ | 0.00638 ± 0.00092 s⁻¹ | 0.00025 ± 3.1e-05 s⁻¹ | 0.000428 ± 7.1e-05 s⁻¹ | 0.003 ± 0.00062 s⁻¹
U69A C71A | 2.44e-05 ± 5.9e-06 s⁻¹ |  |  |  |  |  | 
U45G A53G | 0.0084 ± 0.0028 s⁻¹ | 2020 ± 990 µM | 0.00535 ± 0.0012 s⁻¹ | 0.00681 ± 0.0011 s⁻¹ | 0.000258 ± 4.3e-05 s⁻¹ | 0.000367 ± 0.00012 s⁻¹ | 0.00204 ± 0.00042 s⁻¹
C8A C67A | < 1e-05 s⁻¹ |  | < 1e-05 s⁻¹ |  |  | < 1e-05 s⁻¹ | 
C16A A52G | 0.000129 ± 7.4e-06 s⁻¹ | 730 ± 180 µM | 0.000102 ± 1.9e-05 s⁻¹ | 0.000118 ± 1.9e-05 s⁻¹ |  |  | 6.18e-05 ± 2.3e-05 s⁻¹
G37A C70U | 0.00286 ± 0.00083 s⁻¹ | 3800 ± 1500 µM | 0.0018 ± 0.00029 s⁻¹ | 0.00199 ± 0.00021 s⁻¹ | 4.27e-05 ± 6.4e-06 s⁻¹ | 9.55e-05 ± 1.5e-05 s⁻¹ | 0.000383 ± 4.9e-05 s⁻¹
A53U G60A | < 1e-05 s⁻¹ |  |  |  | < 1e-05 s⁻¹ |  | 
U45A U65C | 0.00412 ± 0.0005 s⁻¹ | 1770 ± 290 µM | 0.00204 ± 0.00054 s⁻¹ | 0.00374 ± 0.00047 s⁻¹ | 9.95e-05 ± 1.1e-05 s⁻¹ | 0.000318 ± 6.3e-05 s⁻¹ | 0.000994 ± 0.00014 s⁻¹
G9A C67A | < 1e-05 s⁻¹ |  |  |  | < 1e-05 s⁻¹ | < 1e-05 s⁻¹ | 
C10U A14G | 0.000181 ± 2.4e-05 s⁻¹ | 2130 ± 650 µM | 8.95e-05 ± 8.6e-06 s⁻¹ | 0.000159 ± 1.6e-05 s⁻¹ |  |  | 5.02e-05 ± 7.8e-06 s⁻¹
U49G C70A | 1.52e-05 ± 2.5e-06 s⁻¹ |  |  |  |  |  | 

Variant | kcat (glucosamine-6-phosphate [1]) | KM (glucosamine-6-phosphate [2]) | self-cleavage kobs at 2500 uM GlcN6P (glucosamine-6-phosphate [3]) | self-cleavage kobs at 10000 uM GlcN6P (glucosamine-6-phosphate [4]) | self-cleavage kobs at 40 uM GlcN6P (glucosamine-6-phosphate [5]) | self-cleavage kobs at 160 uM GlcN6P (glucosamine-6-phosphate [6]) | self-cleavage kobs at 640 uM GlcN6P (glucosamine-6-phosphate [7])
U30G A39C | 0.00157 ± 0.00013 s⁻¹ | 2010 ± 270 µM | 0.000787 ± 7.3e-05 s⁻¹ | 0.00139 ± 0.00011 s⁻¹ | 3.28e-05 ± 5.7e-06 s⁻¹ | 0.000114 ± 1.6e-05 s⁻¹ | 0.000396 ± 3.6e-05 s⁻¹
C11A A15U U65G C71U | < 1e-05 s⁻¹ |  |  |  |  |  | 
U55G U65A | 0.00461 ± 0.00094 s⁻¹ | 3100 ± 880 µM | 0.00174 ± 0.00025 s⁻¹ | 0.00388 ± 0.00043 s⁻¹ | 6.02e-05 ± 7.6e-06 s⁻¹ | 0.000296 ± 4.5e-05 s⁻¹ | 0.000695 ± 0.00011 s⁻¹
A15G G59U | 0.000115 ± 2.5e-05 s⁻¹ |  | 4.46e-05 ± 1.4e-05 s⁻¹ | 9.05e-05 ± 1.6e-05 s⁻¹ |  |  | 2.79e-05 ± 1.3e-05 s⁻¹
G63U U69G | 2.86e-05 ± 7.3e-06 s⁻¹ |  |  |  |  | 3.51e-05 ± 1.5e-05 s⁻¹ | 3.96e-05 ± 1.5e-05 s⁻¹
A12C U69G | 6.77e-05 ± 5.2e-06 s⁻¹ |  | 7.6e-05 ± 9.1e-06 s⁻¹ | 5.86e-05 ± 7.7e-06 s⁻¹ |  | 5.5e-05 ± 1.2e-05 s⁻¹ | 6.7e-05 ± 8.9e-06 s⁻¹
A39U G43U | 0.000561 ± 0.00011 s⁻¹ | 1770 ± 600 µM | 0.000418 ± 4.9e-05 s⁻¹ | 0.00046 ± 4.6e-05 s⁻¹ | 1.76e-05 ± 8.1e-06 s⁻¹ | 5.96e-05 ± 8.5e-06 s⁻¹ | 0.000127 ± 1.3e-05 s⁻¹
U54A U69A | 0.00011 ± 2.2e-05 s⁻¹ |  | 0.000141 ± 2.3e-05 s⁻¹ | 8.28e-05 ± 1.5e-05 s⁻¹ |  | 0.000107 ± 1.5e-05 s⁻¹ | 0.000109 ± 1.9e-05 s⁻¹
G59A C68A | < 1e-05 s⁻¹ |  |  |  | < 1e-05 s⁻¹ |  | 
C50G U54A | 3.07e-05 ± 1e-05 s⁻¹ |  | 5.55e-05 ± 2.3e-05 s⁻¹ |  | 2.88e-05 ± 1.2e-05 s⁻¹ | 5.21e-05 ± 1.6e-05 s⁻¹ | 
U31C A39G | 0.018 ± 0.0061 s⁻¹ | 4940 ± 2200 µM | 0.00524 ± 0.0013 s⁻¹ | 0.0125 ± 0.0018 s⁻¹ | 0.000253 ± 4.8e-05 s⁻¹ | 0.000489 ± 8.5e-05 s⁻¹ | 0.00212 ± 0.00039 s⁻¹
G7A U31G | 2.76e-05 ± 2.9e-06 s⁻¹ | 2490 ± 920 µM |  |  |  |  | 
U45C U65A C67G | 0.00116 ± 0.00022 s⁻¹ | 1660 ± 630 µM |  | 0.000996 ± 0.00022 s⁻¹ | 3.4e-05 ± 1.6e-05 s⁻¹ |  | 0.000279 ± 0.0001 s⁻¹
C16U A36U | < 1e-05 s⁻¹ |  |  |  |  |  | 
C16A C71G | 6.32e-05 ± 9.8e-06 s⁻¹ |  | 9.36e-05 ± 1.5e-05 s⁻¹ | 5.48e-05 ± 6.9e-06 s⁻¹ |  | 3.88e-05 ± 1.5e-05 s⁻¹ | 7.21e-05 ± 1.7e-05 s⁻¹
C10G G62C | < 1e-05 s⁻¹ |  |  |  |  |  | 
U46C U55G | 0.00362 ± 0.00063 s⁻¹ | 1790 ± 450 µM | 0.00259 ± 0.00049 s⁻¹ | 0.00271 ± 0.00058 s⁻¹ | 8.17e-05 ± 2.1e-05 s⁻¹ | 0.000255 ± 5.8e-05 s⁻¹ | 0.00107 ± 0.00023 s⁻¹

Reference: the supplement of paper PMC7125110
